Several values for one entry are separate records, joined by “and”; a condition that tells them apart may be missing. Identical values can stand only once.
Target: recombinant ATcpnβ thermosome subunit from Acidianus tengchongensis strain S5 (Acidianus tengchongensis strain S5)
Assay: cryo-EM structure

subunits per ring (symmetry of top views): 9 and 10
Substance: recombinant ATcpnβ thermosome subunit from Acidianus tengchongensis strain S5 (natural protein)
